Experimental data as given in patent publication US20240240140A1.

Molecular target: mouse TLR5 (toll-like receptor 5) expressed on HEK293/mTLR5 cell line (mouse) (UniProt Q9JLF7)
Assay: cell-based or functional assay

UniProt Q9JLF7, sequence (Q9JLF7 27-859): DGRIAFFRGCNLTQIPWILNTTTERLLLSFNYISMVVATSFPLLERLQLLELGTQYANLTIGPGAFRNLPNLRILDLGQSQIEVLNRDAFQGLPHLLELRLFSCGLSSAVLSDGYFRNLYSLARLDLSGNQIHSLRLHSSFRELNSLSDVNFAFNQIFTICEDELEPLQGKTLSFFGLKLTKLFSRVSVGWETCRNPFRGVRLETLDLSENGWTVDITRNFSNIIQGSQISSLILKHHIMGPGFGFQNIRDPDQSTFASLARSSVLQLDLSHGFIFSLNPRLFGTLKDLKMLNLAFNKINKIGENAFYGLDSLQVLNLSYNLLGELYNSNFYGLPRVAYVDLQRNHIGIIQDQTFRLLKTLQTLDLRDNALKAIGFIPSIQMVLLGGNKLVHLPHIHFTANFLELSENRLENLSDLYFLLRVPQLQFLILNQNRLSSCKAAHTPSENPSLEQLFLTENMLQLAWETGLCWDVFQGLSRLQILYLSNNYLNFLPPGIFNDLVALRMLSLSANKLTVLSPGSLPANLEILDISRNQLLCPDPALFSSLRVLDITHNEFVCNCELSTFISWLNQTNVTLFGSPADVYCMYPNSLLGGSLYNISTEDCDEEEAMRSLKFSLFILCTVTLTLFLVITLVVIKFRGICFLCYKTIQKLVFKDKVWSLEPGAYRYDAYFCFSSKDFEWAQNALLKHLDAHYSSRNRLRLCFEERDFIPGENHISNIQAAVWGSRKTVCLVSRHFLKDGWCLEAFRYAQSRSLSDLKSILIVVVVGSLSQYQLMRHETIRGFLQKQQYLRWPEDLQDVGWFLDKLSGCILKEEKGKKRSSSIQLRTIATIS

“sgFliC (Salmonella gallinarum-derived FliC, filament structural protein, expressed from psgFliC and secreted by attenuated Salmonella gallinarum SG4052) (from UniProt Q06972 1-494) (ligand)” was tested, and the QUANTI-Blue SEAP assay using HEK293/mTLR5 cell line (TLR5 stimulation relative to FLA-ST) was 2 fold.
